This note sets out measurements from the nanobody polyreactivity screen of Harvey et al. (2022).

The nature of the series: yeast display, Sf9 membrane polyspecificity reagent, FACS + sequencing; frameworks hold sequencing errors. A digest of the protocol: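 After 36–48 hours of galactose induction, yeast (Saccharomyces cerevisiae BJ5465) displaying a synthetic nanobody library were stained at 4 °C for 1 hour with 10% biotinylated, detergent-solubilized Sf9 membrane reagent. Streptavidin microbeads enriched the stained cells before FACS sorting into low and high (top ~1%) gates on anti-HA and streptavidin fluorescence. Each clone's polyreactivity label reflects its gate of origin.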
As for “QVQLEESGGGLVQAGGSLRLSCAASGITFRYYAMGWYRQAPGKEWELVAAITRSGSSTFYADSVKGRFTISRDNAKNTVYLQMNSLKPEDSAVYYCAAESVRAVFPDRYKYWGQGTQVTVSS”, the “polyreactivity (PSR sort gate)” value is on record as “high polyreactivity”. For “QVQLEESGGGLVQAGGSLRLSCAASGITFSDYAMGWYRQAPGKERELVAGISFTVGSTYYADSVKRPFTISRDNAKNTVYLQMNSLKPEDTAVYLCNADSFVDLDYWGQGTQVTVSS”, the “polyreactivity (PSR sort gate)” value was “low polyreactivity”. Regarding “QVQLEESGGGLVQAGGSLRLSCAASGITFVDYDMGWYRQATGKERELVAAITTGSSTYYADSVKGRFTISRDNAKNTVYLQMNSLKPEDTAVYYCARDLEYDYYQQWSYGYWGQGTQVTVSS”, the “polyreactivity (PSR sort gate)” value is recorded as “low polyreactivity”. For “QVQLEESGGGLVQAGGSLRLSCAASGITFWHNTMGWYRQATGKEREMVAAISWTGGRTYYADSVKGRFTISRDNAKNTVYLQMNSLKPDDTAVYYCAADFSWTPSGNYDSWGQGTQVTVSS” the value was “low polyreactivity”. In the case of “QVQLEESGGGLVQAGGSLRLSCAASGITLAHNAMGWYRQAAGKERELVASITESGGSTYYADSVKGRFTISRDNAKNTVYLQMNRLKPEDTAVYYCAVRPTVGYWTVYYWGQGTQVTVSS”, the “polyreactivity (PSR sort gate)” value is reported as “high polyreactivity”. As for “QVQLEESGGGLVQAGGSLRLSCAASGITSPAYAMGWYRQAPGKEREFVAAISSSGGSTYYADSVKGRFTISRDNAKNTVYLQMNSLKPEDTAVYYCAVRGRISSVSRYGYWGQGTQVTVSS”, the entry is “high polyreactivity”; as for “QVQLEESGGGLVQAGGSLRLSCAASGLTFAYNTMGWYRQAPGKEREFVASISSSGGNTYYADSVKGRFTISRDNAKNTVYLQMNSLKPEDTAVYYCAAKKKYHYVASYKRFEYWGQGTQVTVSS”, “low polyreactivity”. Consider “QVQLEESGGGLVQAGGSLRLSCAASGLTFPSNAMGWYRQATGKERALVASISKRGGRTYYADSVKGRFTISRDNAKHTVYLQMNSLKPEDTAVYDCATPYAYPGSVQYAGYNYWGQGTQVTVSS”, for which the “polyreactivity (PSR sort gate)” value is “high polyreactivity”. As to “QVQLEESGGGLVQAGGSLRLSCAASGNIFPRYAMGWYRQAPGKERELVAAISYSGARTYYADSVKGRFTISRDNAKNTVYLQMNSLKPEDTAVYYCNKRVYYPWGQGTQVTVSS”, the “polyreactivity (PSR sort gate)” value is reported as “high polyreactivity”.

As for “QVQLEESGGGLVQAGGSLRLSCAASGRIFNTNAMGSYRQAPGKERELVAGITYSGDSTYYADSVKGRFTISRDNAKNTVYLQMNSLKPEDTAVYYCATDPASPYLYDYWGQGTQVTVSS”, the “polyreactivity (PSR sort gate)” value was “low polyreactivity”.

Turning to “QVQLEESGGGLVQAGGSLRLSCAASGRIFPRNAMGWYRQATGKERELVASITSGGSTNYADSVKGRFTISRDNAKNTVYLQMHSLKPEDTAVYYCAADRTGYQLETTEYDYWGQGTQVTVSS”, the “polyreactivity (PSR sort gate)” value is reported as “high polyreactivity”. In the case of “QVQLEESGGGLVQAGGSLRLSCAASGRIFPTYVMGWYRQAPGKERELVAAITSIDGRTYYADSVKGRFTISRDNAKNTVYLQMNSLKPEDTAVYYCAADYDYLSISEGYYWGQGTQVTVSS”, the “polyreactivity (PSR sort gate)” value is given as “low polyreactivity”. As for “QVQLEESGGGLVQAGGSLRLSCAASGRIFQRNAMGWYRQAPGKEREFVAAITKSGGGTYADSVKGRFTISRDNAKNTVYLQMNSLKAEDTAVYYCNVVPVWRPYSLINWQKDFGYWGQGTQVTVSS”, the entry is “high polyreactivity”. As for “QVQLEESGGGLVQAGGSLRLSCAASGRIFRGNAIAWYRQAPGKERELVASITRGNNTYYADSVKGRFTISRDNAKNTVYLQMNSLKPEDTAVYYCAKRYIYRYYWGQGTQVTVSS”, the entry is “high polyreactivity”; as for “QVQLEESGGGLVQAGGSLRLSCAASGRIFRYTLGWYRQAPGKERELVATINSGGRTYDADSVKGRFTISRDNAKNTVYLQMNSLKPEDTAVYYCAATYQTKSNKYVHGSPIENDYWGQGTQVTGSS”, “low polyreactivity”. Turning to “QVQLEESGGGLVQAGGSLRLSCAASGRIFVTNAMGWSRQAPGKERELVADITSGGSTNYADSVKGRFTISRDNAKNTVYLQMNSLKPEDTAVYYCAARFTPYITSDDGHYDYWGQGTQVTVSS”, the “polyreactivity (PSR sort gate)” value is recorded as “low polyreactivity”. For the sequence “QVQLEESGGGLVQAGGSLRLSCAASGRIFWANAMGWSRQAPGKERELVAAINRRTGITYYADSVKGRFTISRDNAKNTVYLQMNSLKPEDTAVYYCNAGSSPIRQYYGQVWKKGGYWGQGTQVTVSS”, the “polyreactivity (PSR sort gate)” value is given as “high polyreactivity”. As for “QVQLEESGGGLVQAGGSLRLSCAASGRIFYDYAMGWYRKAPGKERELVATISWSAGIKYYADSVKGRFTISRDNAKNTVYLQMNSLKPEDTAVYYCAKVGRYTYSGQYDYWGQGTQVTVSS”, the entry is “high polyreactivity”. For “QVQLEESGGGLVQAGGSLRLSCAASGRIFYLNAMGWYRQAHGKERDLVAAITRSAASTHYADSVKGRFTISRDNAKNTVYLQLNSLKPEDTAVYYCAARFWYDYRHYDYWGQGTQVSVSS” the value was “low polyreactivity”. For “QVQLEESGGGLVQAGGSLRLSCAASGRIIRINPMGLYRQAPGKERELVAAITRGGTTYADSVKGRFTFSRDNAKNTVYLQMNSLKPEDTAVYYCNARTGRSPTGFLYWGQGTQVTVSS” the value was “high polyreactivity”. With “QVQLEESGGGLVQAGGSLRLSCAASGRIYRYYDMGWYRQAPGKEREFVAAITRSGAITYYADSLKGRFTISRDNAKNTVYLQMNSLKPEDTAVYYCAAVDDDYSIVWYDYWGQVTQVTVSS”, the “polyreactivity (PSR sort gate)” value is reported as “low polyreactivity”. On to “QVQLEESGGGLVQAGGSLRLSCAASGRSFRKYAMGWYRQAPGKERELVARISWSAGSTYYADSVKGRFKISRDIAMYTVYLQMNSLKPVDTAFYFCIDDGYYRYGNRVLRPGYYCGQGTQVTVSS”, for which the “polyreactivity (PSR sort gate)” value is recorded as “high polyreactivity”. For “QVQLEESGGGLVQAGGSLRLSCAASGRTFLEYVMGWYRQAPGKERELVAVISWSTGSTYADSVKGRFTISRDNAKNTVYLQMNSLKPEDTAVYYCARRVQSLGNVVIYNYWGQGTQVTVSS”, the “polyreactivity (PSR sort gate)” value is recorded as “low polyreactivity”. As for “QVQLEESGGGLVQAGGSLRLSCAASGRTFRINAMGLYRQAPGKERELVAAIRSRAGSTYYADSVKGRFTISRDNAKNTVYLQMNSLKPEDTAVYYCAAKLPFDVDYWGQGTQVTVSS”, the entry is “high polyreactivity”; as for “QVQLEESGGGLVQAGGSLRLSCAASGRTFSPNTMGWYRQAPGKEREFVAAITASGDSTYYADSVKGRFTISRDNAKYSVYLQMNRLKPEDTAVYYCATDSNWYWGFNYWGQGTQVTVSS”, “low polyreactivity”; as for “QVQLEESGGGLVQAGGSLRLSCAASGRTFSRNAMGWYRQAPGKERELVAAITKGGGSTYYADSVKGRFTISRDNAKNTVYLQMNSLKPEDTAVYYCAARKRPPYGYGYWGQGTQVTVSS”, “high polyreactivity”. As for “QVQLEESGGGLVQAGGSLRLSCAASGRTFTPNAMGSSRQAPGKERELVASIRRGTSTYYADSVKGRFTISRDNAKITVYLQMNSLKPEDTAVYYCAARPFVPRVGTYSYYWGQGTQVTVSS”, the “polyreactivity (PSR sort gate)” value is reported as “high polyreactivity”. As for “QVQLEESGGGLVQAGGSLRLSCAASGRTFTSNPMGLYRKAPGKERELVAAISNSGSSTYYADSVKGRFTISRDNAKNTVYLQMNSLKAEDTAVYYCAAYHYRQNTLYYYWGQGTQVTVSS”, the entry is “high polyreactivity”; as for “QVQLEESGGGLVQAGGSLRLSCAASGRTFTVYAMGWYRQAPGKERELVAGIRRGDSTYYADSVKGRFTISRDNAKNTVYLQMNSLKPEDTAVYYCAARPAGYGHYKYYYWGQGTQVTVSS”, “high polyreactivity”; as for “QVQLEESGGGLVQAGGSLRLSCAASGRTFVYNAMGWYRQAPGKERELVAAITSGGRTYYADSVKGRFTISRDNAKNTVYLQMNSLKPEDTAVYYCAADHRGEYDYWGQGTQVTVSS”, “low polyreactivity”. For “QVQLEESGGGLVQAGGSLRLSCAASGRTLGGYAMGWYRQAPGKERELVASITARGGSTYYADSVKGRFTISRDNAKNTVYLQMNSLKPEDTAVYYCAARSGYYRGGFYYWGQGTQVTVSS” the value was “high polyreactivity”. “QVQLEESGGGLVQAGGSLRLSCAASGRTLQRNAMGWYRQAPGKERELVAAISWSGASTYYADSVKGRFTISRDNAKNTVYLQMTSLKPEDTAVYYCAATYIDRGNIYDYWGQGTQVTVSS”: the “polyreactivity (PSR sort gate)” value is listed as “high polyreactivity”. For “QVQLEESGGGLVQAGGSLRLSCAASGRTSLAYAKGWYRQAPGKERELVAGITSGGNTNYADSVKGRFTISRDNAKNTVYLQMNSLKPEDTAVYSCNKKKRWQWYSESVLVYLGFYSWGQGTQVTVSS” the value was “low polyreactivity”; for “QVQLEESGGGLVQAGGSLRLSCAASGSIFDVIAMGWYSQAPGNVRVLVAAISDSGGSTYYADSVKGRFTNSRDNAKKTVYLQMNSLKPEDTAVYYCNADWSWYNYYDFDYWGLGTQVTVSS”, “low polyreactivity”. As for “QVQLEESGGGLVQAGGSLRLSCAASGSIFFFYAMGWYRQAPGKERELVAAISSDGSTKYADSVKGRFTISRDNAKNTVYLQMNILKPEDTAVYYCNADKWSVVGYVLGFYRDDYWGQGTQVTVSS”, the entry is “low polyreactivity”; as for “QVQLEESGGGLVQAGGSLRLSCAASGSIFKGYAMGWYRQAPGKESELVAAISGGGGSTYYADSVKGRFTISRDNAKNTVYLQMNSLKPEDTAVYYCNRDDSWSPSGAYDYWGQGTQVNVSS”, “low polyreactivity”. For “QVQLEESGGGLVQAGGSLRLSCAASGSIFRNNSMGWYRKAPGKERVLVAVISRRSGNTYYADSVKGRLTISRDNAKNTVYLQMNSLKAEDTAVYYCAADYSKSSIRGEYWGQGTQVTVSS” the value was “low polyreactivity”; for “QVQLEESGGGLVQAGGSLRLSCAASGSIFRNYAIGWYRQAPGKEREFVAANTYSGGSTHYADSVKGRFTISRDNAKNTVYLQMNSLKPEDTAVYYCAADYYWRVHYGYWGQGTQVTVSS”, “high polyreactivity”. As for “QVQLEESGGGLVQAGGSLRLSCAASGSIFVHNDMGWYRQAPGKERELVATIDSAGGTYYADSVKGRFTISRDNAKNTVYLQMNSLKPEDTAVYYCAAYGPYVLSIYDYWGQGTQVTVSS”, the “polyreactivity (PSR sort gate)” value was “low polyreactivity”. As for “QVQLEESGGGLVQAGGSLRLSCAASGSIFVRNAMGWYRQAPGKERELVASISRRGGSTYYADSVKGRFTISRDNAKNTVYLQMISLKPEDTAVYYCAARNQIVPYGTYNYWGQGTQVTVSS”, the entry is “high polyreactivity”; as for “QVQLEESGGGLVQAGGSLRLSCAASGSIFVVYAMGWSRQAPGKERELVASIRTGGSTNYADSEKGRFTISRDNAKNNVYLQMNSLKPEDTAVYYCAAASWNSNRHYYVARYYYWGQGTQVTVSS”, “high polyreactivity”.
